Experimental data: patent US20240002497A1 (Merck Sharp & Dohme, published 2024)

B1: F0103PMP495F09 (bispecific antibody)
chain: EVQLVESGGGLVQPGGSLRLSCAASGSIFNINSMAWYRRAPGKQRELVASSTNGGSTNYADSVKGRFTISRDNAKRVYLQMNSLTPEDTAVYYCRALLQPSIYDISRTYWGQGTLVTVSSGGGGSGGGGSGGGGSGGGGSGGGGSGGGGSGGGGSGGGGSGGGGSGGGGSEVQLVESGGGLVQAGSSLSLSCAASGRALSTYAMGWFRQAPGKEREFVARISRSGITTYYTDSVKGRFTISRDRAKDTVYLQMNSLKPEDTAIYLCAADASTNPAGYYLRNRYDYWGQGTLVTVSSAAADYKDHDGDYKDHDIDYKDDDDKGAAHHHHHHKAAGGGGG
notes: crude periplasmic extract; also called F103275B05(N93R)-50GS-F0103495F09 bivalent ISVD
B2: F0103262C02 (parental)-FLAG-HIS6 (VHH)
VHH: EVQLVESGGGLVQAGGSLTLSCAASGLPFGLYILGWIRRAPGKERDFVAAISRSGRDTVYANSVKGRFTISRDNAKNMVYLRMDNLRPEDTAAYYCAVDSVPRGTPTITESEYAIWGQGTLVTVSS
notes: also called F0103262CO2; F103262CO2
B3: F0103265B04 (parental)-FLAG-HIS6 (VHH)
VHH: EVQLVESGGGLVQPGGSLRLSCAAPSFIFSNNYMEWYRQAPGKQRDWVARITGRGNTNYLDSVKGRFTISRDDAKNTVYLEIDSLKPEDTAVYYCSALWYGGRAWGKGTLVTVSS

Experiments:
[1] = molecular target: T1, huNav1.7α + β1-β2-β3 (human, UniProt Q15858 1-1988; A5A6L6 19-218; O60939 30-215; Q2KI11 23-215); test: FACS, CHO Flp-In, competitor 1 µM IRR00092
T1 construct: also called huNav1.7-beta1-beta2-beta3; huNav1.7-β1-β2-β3

[2] = molecular target: T2, rhNav1.7α + β1-β2-β3 (rhesus monkey); test: FACS, CHO Flp-In, competitor 1 µM IRR00092
T2 construct: also called rhNav1.7-beta1-beta2-beta3; rhNav1.7-β1-β2-β3

[3] = molecular target: T3, huNav1.5-β1-β2-β3 (human); test: FACS, CHO Flp-In, competitor 1 µM IRR00092
T3 construct: Whole entry; CHO Flp-In or HEK Flp-In cells; also called huNav1.5-beta1-beta2-beta3

[4] = molecular target: T3, huNav1.5-β1-β2-β3; test: binding FACS, HEK Flp-In
[5] = molecular target: T4, huNav157chim14 (human); test: binding FACS, HEK Flp-In
T4 construct: HEK Flp-In cells; also called huNav157 chimera 14

[6] = molecular target: T5, huNav157chim14-β1-β2-β3 (human); test: binding FACS, HEK Flp-In
T5 construct: Whole entry; HEK Flp-In cells; also called huNav157 chimera 14-beta1-beta2-beta3

[7] = molecular target: T1, huNav1.7α + β1-β2-β3; test: binding FACS, CHO Flp-In, periplasmic extract
[8] = molecular target: T3, huNav1.5-β1-β2-β3; test: binding FACS, CHO Flp-In, periplasmic extract
[9] = molecular target: T2, rhNav1.7α + β1-β2-β3; test: FACS, CHO Flp-In, competitor 1 µM F010300703
[10] = molecular target: T3, huNav1.5-β1-β2-β3; test: FACS, CHO Flp-In, competitor 1 µM F010300703
[11] = molecular target: T6, huNav1.2α (human, UniProt Q99250 1-2005); test: binding FACS on stable huNav1.x paralog HEK293T cell lines
T6 construct: also called huNav1.2 (alpha subunit)
T6 sequence (Q99250 whole entry): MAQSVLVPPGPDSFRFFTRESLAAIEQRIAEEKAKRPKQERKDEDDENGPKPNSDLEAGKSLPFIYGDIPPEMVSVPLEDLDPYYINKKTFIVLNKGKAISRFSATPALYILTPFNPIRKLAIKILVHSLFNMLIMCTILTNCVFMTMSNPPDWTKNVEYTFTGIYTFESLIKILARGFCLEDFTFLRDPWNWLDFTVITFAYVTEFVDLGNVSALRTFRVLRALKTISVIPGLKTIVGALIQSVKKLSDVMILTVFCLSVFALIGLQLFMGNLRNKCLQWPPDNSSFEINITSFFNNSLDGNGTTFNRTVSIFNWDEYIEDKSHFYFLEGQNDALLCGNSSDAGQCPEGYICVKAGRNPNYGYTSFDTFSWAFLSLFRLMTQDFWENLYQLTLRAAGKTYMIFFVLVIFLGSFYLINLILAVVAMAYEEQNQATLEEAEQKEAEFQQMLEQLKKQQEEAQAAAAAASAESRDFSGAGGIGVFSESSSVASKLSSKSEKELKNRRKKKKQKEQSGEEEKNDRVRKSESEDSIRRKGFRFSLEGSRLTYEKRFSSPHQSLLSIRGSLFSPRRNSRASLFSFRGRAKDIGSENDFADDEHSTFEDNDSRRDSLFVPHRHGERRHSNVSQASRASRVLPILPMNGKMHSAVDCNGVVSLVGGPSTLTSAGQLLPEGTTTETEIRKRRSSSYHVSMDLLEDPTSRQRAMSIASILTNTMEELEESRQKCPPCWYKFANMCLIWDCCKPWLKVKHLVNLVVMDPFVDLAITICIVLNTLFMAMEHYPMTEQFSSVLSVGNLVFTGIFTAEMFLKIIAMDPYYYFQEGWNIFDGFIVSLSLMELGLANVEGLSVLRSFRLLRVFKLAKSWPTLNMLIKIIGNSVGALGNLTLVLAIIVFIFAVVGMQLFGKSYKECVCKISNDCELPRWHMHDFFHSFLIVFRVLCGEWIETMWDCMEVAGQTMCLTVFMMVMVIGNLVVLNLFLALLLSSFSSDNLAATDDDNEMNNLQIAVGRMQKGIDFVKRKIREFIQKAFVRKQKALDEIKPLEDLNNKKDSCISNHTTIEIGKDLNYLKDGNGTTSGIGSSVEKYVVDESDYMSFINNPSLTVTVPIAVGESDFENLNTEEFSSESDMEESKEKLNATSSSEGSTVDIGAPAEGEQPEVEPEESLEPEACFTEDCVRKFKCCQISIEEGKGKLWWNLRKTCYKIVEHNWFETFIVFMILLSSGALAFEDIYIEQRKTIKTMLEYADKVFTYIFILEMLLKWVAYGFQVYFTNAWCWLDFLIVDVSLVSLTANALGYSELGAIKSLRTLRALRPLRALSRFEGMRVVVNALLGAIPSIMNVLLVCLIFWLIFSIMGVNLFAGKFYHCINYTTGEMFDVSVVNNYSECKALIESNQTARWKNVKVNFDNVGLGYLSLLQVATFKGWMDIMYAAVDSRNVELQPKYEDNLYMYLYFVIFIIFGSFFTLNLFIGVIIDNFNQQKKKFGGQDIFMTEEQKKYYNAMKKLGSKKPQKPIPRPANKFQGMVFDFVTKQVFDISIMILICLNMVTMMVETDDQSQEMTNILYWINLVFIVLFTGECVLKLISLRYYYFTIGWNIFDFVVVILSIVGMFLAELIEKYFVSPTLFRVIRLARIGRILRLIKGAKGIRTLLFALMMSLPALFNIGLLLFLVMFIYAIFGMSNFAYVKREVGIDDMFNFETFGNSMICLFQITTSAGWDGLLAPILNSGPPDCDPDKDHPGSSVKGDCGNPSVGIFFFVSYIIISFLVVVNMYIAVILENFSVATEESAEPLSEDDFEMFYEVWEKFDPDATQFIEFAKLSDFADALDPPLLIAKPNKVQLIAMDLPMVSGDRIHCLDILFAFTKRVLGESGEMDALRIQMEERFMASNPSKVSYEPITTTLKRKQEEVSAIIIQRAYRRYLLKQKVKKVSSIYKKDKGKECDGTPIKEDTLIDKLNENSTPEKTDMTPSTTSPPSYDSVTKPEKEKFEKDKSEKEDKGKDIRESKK

[12] = molecular target: T7, huNav1.3α (human, UniProt Q9NY46 1-2000); test: as above
T7 construct: also called huNav1.3 (alpha subunit)

[13] = molecular target: T8, huNav1.8α (human, UniProt Q9Y5Y9 1-1956); test: as above
T8 construct: also called huNav1.8 (alpha subunit)

[14] = molecular target: T9, huNav1.4α (human, UniProt P35499 1-1836); test: as above
T9 construct: also called huNav1.4 (alpha subunit)
T9 sequence (P35499 whole entry): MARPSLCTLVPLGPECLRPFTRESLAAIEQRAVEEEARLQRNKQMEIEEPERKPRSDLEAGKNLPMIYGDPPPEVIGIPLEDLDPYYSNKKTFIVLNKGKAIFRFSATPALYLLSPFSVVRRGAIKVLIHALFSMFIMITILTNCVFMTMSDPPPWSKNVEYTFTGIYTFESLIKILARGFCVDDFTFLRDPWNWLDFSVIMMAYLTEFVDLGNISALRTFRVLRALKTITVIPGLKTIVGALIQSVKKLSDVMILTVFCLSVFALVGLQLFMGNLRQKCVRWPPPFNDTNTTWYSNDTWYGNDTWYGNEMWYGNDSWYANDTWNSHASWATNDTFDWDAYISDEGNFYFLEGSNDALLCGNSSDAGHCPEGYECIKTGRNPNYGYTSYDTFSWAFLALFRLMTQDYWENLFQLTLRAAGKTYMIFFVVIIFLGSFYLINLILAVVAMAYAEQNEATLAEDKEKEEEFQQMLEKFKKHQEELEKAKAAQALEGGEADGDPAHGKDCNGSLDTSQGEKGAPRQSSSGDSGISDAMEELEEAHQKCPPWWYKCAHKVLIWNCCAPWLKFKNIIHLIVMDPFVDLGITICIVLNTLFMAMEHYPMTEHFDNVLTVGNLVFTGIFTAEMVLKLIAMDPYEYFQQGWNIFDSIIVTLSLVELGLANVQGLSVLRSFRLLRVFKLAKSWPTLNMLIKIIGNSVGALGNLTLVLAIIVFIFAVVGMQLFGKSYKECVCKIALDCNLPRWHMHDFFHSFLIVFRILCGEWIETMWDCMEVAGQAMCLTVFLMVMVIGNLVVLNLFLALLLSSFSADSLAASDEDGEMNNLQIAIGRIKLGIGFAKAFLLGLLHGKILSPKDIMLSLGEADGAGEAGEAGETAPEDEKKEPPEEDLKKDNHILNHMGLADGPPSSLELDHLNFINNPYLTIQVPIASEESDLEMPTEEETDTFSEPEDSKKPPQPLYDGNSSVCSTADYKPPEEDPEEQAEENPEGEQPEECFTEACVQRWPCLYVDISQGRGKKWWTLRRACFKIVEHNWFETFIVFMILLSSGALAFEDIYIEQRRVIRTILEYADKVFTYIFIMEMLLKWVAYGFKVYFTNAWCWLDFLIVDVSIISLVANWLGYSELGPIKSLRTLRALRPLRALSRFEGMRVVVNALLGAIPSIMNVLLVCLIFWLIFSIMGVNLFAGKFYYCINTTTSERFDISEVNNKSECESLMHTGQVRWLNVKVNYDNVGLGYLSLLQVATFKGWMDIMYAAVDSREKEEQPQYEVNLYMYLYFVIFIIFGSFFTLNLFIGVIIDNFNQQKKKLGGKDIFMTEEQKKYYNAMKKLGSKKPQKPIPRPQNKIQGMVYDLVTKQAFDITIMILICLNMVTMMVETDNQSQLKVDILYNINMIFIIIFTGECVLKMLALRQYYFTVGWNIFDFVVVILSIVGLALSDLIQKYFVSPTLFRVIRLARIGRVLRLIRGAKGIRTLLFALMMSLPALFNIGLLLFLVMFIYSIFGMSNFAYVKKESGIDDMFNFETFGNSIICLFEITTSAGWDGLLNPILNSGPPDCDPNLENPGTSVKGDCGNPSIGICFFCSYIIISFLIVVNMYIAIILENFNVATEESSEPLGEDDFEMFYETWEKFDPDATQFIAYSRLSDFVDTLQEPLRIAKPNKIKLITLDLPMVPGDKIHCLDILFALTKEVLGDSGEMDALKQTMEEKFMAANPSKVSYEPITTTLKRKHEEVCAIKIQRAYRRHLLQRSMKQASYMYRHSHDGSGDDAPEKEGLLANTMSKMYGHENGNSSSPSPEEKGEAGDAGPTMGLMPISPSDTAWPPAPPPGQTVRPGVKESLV

[15] = molecular target: T10, huNav1.6α (human, UniProt Q9UQD0 1-1980); test: as above
T10 construct: also called huNav1.6 (alpha subunit)

[16] = molecular target: huNav1.1α (human, UniProt P35498 1-2009); test: as above
[17] = molecular target: T11, huNav1.5α (human, UniProt Q14524 1-2016); test: as above
T11 construct: also called huNav1.5 (alpha subunit)

[18] = molecular target: T12, huNav1.7α+β1-β2-β3 (human, UniProt Q15858 1-1988; Q07699 19-218; O60939 30-215; Q9NY72 23-215); test: binding FACS, CHO FlpIn cells
T12 construct: 5N11S variant; also called huNav1.7-beta1-beta2-beta3; huNav1.7α+Navβ1-Navβ2-Navβ3
Procedure: (§1) Binding of the ISVDs to cell-expressed Nav1.7α was detected via murine anti-Flag (Sigma, catalog #F1804). Briefly, cells were resuspended in FACS buffer (PBS, 10% FBS, NaN₃) and transferred to a 96-well V-bottom plate at 1×10^5 cells/well. Purified FLAG3-tagged ISVD was diluted in FACS buffer and added to the cells for 30 minutes at 4° C. […] Prior to the read-out, the samples were resuspended in 1 μg/mL propidium iodide (Sigma, catalog #P4170) to exclude dead cells. Between each step, the cells were centrifuged for 5 minutes at 200 grams and washed with 100 μL/well FACS buffer.
(§2) Crude periplasmic extracts containing ISVDs from phage display selections (as described above) were screened in FACS for binding to huNav1.7α but not to huNav1.5a. […] As used in Table 8, the drawings, and throughout the description, Navβ1, Navβ2, and Navβ3 are human homologs unless specifically identified otherwise.

[19] = molecular target: T13, rhNav1.7α+β1-β2-β3 (rhesus monkey α subunit with human β …); test: binding FACS, CHO FlpIn cells
T13 construct: P2A cleaves it into α, β1, β2, β3; also called rhNav1.7-beta1-beta2-beta3
Procedure: as §1, §2

[20] = molecular target: T14, huNav1.7α+β1 (human, UniProt Q15858 1-1988; Q07699 19-218); test: binding FACS, HEK293 cells
T14 construct: also called huNav1.7-beta1; HEKa/β1
Procedure: as §1, §2

[21] = molecular target: T15, huNav1.7(N146S, V194I, F276V, R277Q, E281V, V331M, E504D, D507E, S508N, N533S)-β1-β2-β3 (human, UniProt Q15858 1-1988; Q07699 19-218; O60939 30-215; Q9NY72 23-215); test: FACS on transiently transfected HEK293T cells
T15 construct: Transiently on HEK293T cells; The text prints V1941 for V194I; also called chimeric variant of huNav1.7α with all DI huNav1.7α-rhNav1.7α polymorphisms
Procedure: as §1
FACS binding studies (as described above) were performed on HEK293T cells transiently transfected with a chimeric variant of huNav1.7α in which all the huNav1.7α-rhNav1.7α polymorphisms of DI are present (N146S, V1941, F276V, R277Q, E281V, V331M, E504D, D507E, S508N, N533S). Replacing the huNav1.7α DI sequence for that of rhNav1.7α is sufficient to abolish the binding of F0103262CO2, F0103265B04, F0103262B06, and F0103265A11 to huNav1.7α, recapitulating the absence of binding on rhNav1.7α (see FIGS. 21A-21B).

[22] = molecular target: T12, huNav1.7α+β1-β2-β3; test: binding FACS, HEK FlpIn cells
Procedure: as §1, §2

[23] = molecular target: T16, huNav157chimera14+β1-β2-β3 (human, UniProt Q07699 19-218; O60939 30-215; Q9NY72 23-215); test: binding FACS, HEK FlpIn cells
T16 construct: HEK FlpIn line; also called huNav157 chimera 14-beta1-beta2-beta3; Nav157ch14-β1-β2-β3
Procedure: as §1, §2

[24] = molecular target: T17, huNav1.5α+β1-β2-β3 (human, UniProt Q14524 1-2016; A5A6L6 19-218; O60939 30-215; Q2KI11 23-215); test: binding FACS, HEK FlpIn cells
T17 construct: in the cell P2A cleaves it into α, β1, β2, β3; also called huNav1.5-beta1-beta2-beta3
Procedure: as §1, §2

Row | Binder | binding result [11] | binding result [12] | binding result [13] | binding result [14] | binding result [15] | binding result [16] | binding result [17] | EC50 [18] [nM] | binding result [19] | EC50 [20] [nM] | binding result [21] | EC50 [22] [nM] | EC50 [23] [nM] | binding result [24] | further results
1 | B1 | – | – | – | – | – | – | – | – | – | – | – | – | – | – | MFI [1]: 93300 MFI; MFI [2]: 90400 MFI; MFI [3]: 930 MFI; MFI [4]: 976 MFI; MFI [5]: 45100 MFI; MFI [6]: 128000 MFI; MFI [7]: 35600 MFI; MFI [8]: 483 MFI; MFI [9]: 6280 MFI; MFI [10]: 645 MFI
2 | B2 | no binding | no binding | no binding | no binding | no binding | no binding | no binding | 320 | no binding | 180 | no binding (tested: 1 µM) | 380 | 470 | no binding | –
3 | B3 | no binding | no binding | no binding | no binding | no binding | no binding | no binding | 5.4 | no binding | 5.5 | no binding (tested: 1 µM) | 8.1 | 8.5 | no binding | –
